Results from paper PMC9268139, “Conversion of the Native N-Terminal Domain of TDP-43 into a Monomeric Alternative Fold with Lower Aggregation Propensity” (Molecules, 2022).

B1: N-terminal domain (NTD) of TAR DNA-binding protein 43 (TDP-43) (domain or fragment, UniProt Q13148 1-77, looked up)
chain: MSEYIRVTEDENDEPIEIPSEDDGTVLLSTVTAQFPGACGLRYRNPVSQCMRGVRLVEGILHAPDAGWGNLVYVVNY
notes: whole protein has 414 residues; also called TDP-43 NTD; native NTD; source: purified as previously described [24]

Columns and labels:
[1] = target: TDP-43 NTD NTD (Homo sapiens) (UniProt Q13148); experiment: AUC; settings: cited from earlier work
[2] = target: the molecule itself; experiment: SEC; 0.5 mg/mL (45 µM) NTD loaded, 0.0% SB3-10, Superdex 200 Increase 10/300 GL, 5 mM sodium phosphate, 50 mM NaCl, 1 mM DTT, pH 7.4, 4 °C; calibration with folded standards

Molecule	Kd [1]	stoichiometry N [2]
TDP-43 NTD NTD (from UniProt Q13148)	40 µM	–
B1	–	~2
